This passage reports protein production results from a protein production outcome set (Wang et al. 2014).

A short description of the data set: label from the status in PepcDB records.
On to “MSFSYGLAVPFVPTLVLLPQTSAAHVQRIRGGNILSLIDQPPPVVPTLTPPPQQARSGIRINKVTSSYAGLLTSVKEAGLLERCRRDYLLLLTLLVIAGAGVLVAFFFVGDSWLQLVVAAALGIVFTQFALFGHEAAHQQVFTSRAANEWAARLIATLMVGMSYAYWTDKHSRHHARPNVVNRDPDIAPGAIVFHNEVPTNRGRFSRAYGKRQGYLLFPLLLFLGWTLHIDSLKYLLKRGPVKFRWLELGLLGVRFGTYIGLLFLVLSPGIAVAFIGVQVAVFGLYMGGTFAPNHKGMPILPADSRADFLSRQVLTSRNITGGGFVTFLMGGLNYQIEHHLFPDMPRRHLREASQLVKAHCVRTGIPYTETSLMRSYSIVIRYLNTVGLAAADPFTCPLAGQHRP”, for which the protein production result is “failed”.

As for “MSFTGKDYSRFRSQQQRGNPHSSEGNTSAVHGTGQNSRPQTPINQASGASPQQGNQSPNGSVNHANPLASRLNDITLDELLDSLGRAGLLRLDPNRPPGTFWFEDDPSVPATVRSIFERDFKELHANWSMTPQHVVDRWFETFAQMYNWDKTINKRVKTEFEAKLKERMTDQVCRWKGKWREKGDAAMPRWFDPAVWAGLISFWRDPKSELKSINSRNARLHDPDGLGIHKHRSGQTSYKAHARKRCELTGETTPNFLVLLDKTHRKPDGSFIDGKSEEIYNEVSSRIQEESSQLCSNNTTESTASGGGSKEEREDIWGWFIAARSRMSSHWSFSSSRRSG”, the protein production result is “failed”.

Turning to “MSFTWRKKMDAKTNNAISKSMMFFHWVIGLGMIAVLISGLVMDDESNNLLFNAHMSFGLLVLALSVPRLVGRLIGGMPKPMTERSKFESIAAAVVMYSLLALTVVLPLSGIAVSVGEGYGLSLFGFELVSSGREIHMLKELGEGIHEFSGEALLPFLLVLHLGASFMHHFIKQDGTLLRMLGKA”, the protein production result is on record as “failed”.

On to “MSFVLWLVGKKCIVDVGTNGKNSWKVGGKDGVACRDHSGFRLEKLGLFCWWKLQKDGCGQKLNRRKDHRAFPLPSVVNERPRKLND”, for which the protein production result is “failed”.

For “MSFVSALCRLAVALWVGGATLFTFVLTPTIFRSESRDAAGRIVGYLFPGYFRWGLACGAVALVALLVVRGKNWIPAAALMVVMLAVTAFQALHIEPKAAELKRQIPSFETTTKDHPLRREFSKLHGISAACNLSVIAGGVVLVILL”, the protein production entry was “failed”.

With “MSFYIQLASLSIIILYVLLLFRNVDPLVATAVCVGLGFLWNISTPIDIGNAMADALGSFMALVGFIIMLGRGLGEVLTHTQVSHTLVHQIVYGVGVNTQRRAKIGIVLSSFIIVGLLGTLAGGLAILAPSLRPIAGSVGLSRPSLAVLMQASAEEALILGPFAPPVVTLLGVTGLSYGTVFLYASLPIAVVTLITTWFMASRLQKLYINEPCEDENSTEPFTPNRQQKRVTLIFLISFLFCVVYGLFTQAKTSYVIFVMLFLALITGLSCRLGLKQIFNLLFEGMQKSLHLFFLFILFDPFMALIHQAGGFNALTELLTPLINLGGKPVLSILIGFTGAFGMPGAAEATIKMLHQLFSPSVLQMQLPLITFALCMLFATRVTNYAYPGANMFAAMGFAGSENVKAMIQNGLVVTGVQVAFLIVYSLFIP”, the protein production result is listed as “failed”.

For the sequence “MSGHKCYSWELQDRFAQDKSVVNKMQQKYWETKQAFIKATGKKEDEHVVASDADLDAKLELFHSIQRTCLDLSKAIVLYQKRICFLSQEENELGKFLRSQGFQDKTRAGKMMQATGKALCFSSQQRLALRNPLCRFHQEVETFRHRAISDTWLTVNRMEQYRTEYRGALLWMKDVSQELDPDLYKQMEKFRKVQTQVRLAKKNFDKLKMDVCQKVDLLGASRCNLLSHMLATYQTTLLHFWEKTSHTMAAIHESFKGYQPYEFTTLKSLQDPMKKLVEKEGKKTSWRENREAVAPEPRQLISLEDEHKDSSTYKTEEGTSVLSSVDKGSVHDTCSGPIDELLDGKPEEACLGPTAGTPEPESGDKDDLLLLNEIFSTSCLDEGEFSREWAAVFGDDRLKEPAPMGAQGEPDPKPQIGSGFLPSQLLDQNMKDLQASLQEPAKAASDLTAWFSLFADLDPLSNPDAVGKTDKEHELLNA”, the protein production entry was “failed”.

With “MSGPSTYQPQSPLMKWLEQRLPIAGLVHSSFIAYPTPRNLNYWWTFGAILSMMLAVQIVTGIVLAMHYTPHVDLAFDSVERIVRDVNYGWLLRNMHAAGASMFFIAVYVHMLRGLYYGSYKAPREVLWILGVIIYLLMMATGFMGYVLPWGQMSFWGATVITNLFSAFPIVGDSIVTLLWGGYSVGNPTLNRFFSLHYLLPFVIAGVVVLHVWALHVTGQNNPAGVEPKTEKDTVPFTPYATLKDVFGMSCFLVFYSWFIFYMPNYLGDAENYVPANPGVTPPHIVPEWYYLPFYAILRSIPNKLMGVIAMFGAIIVLLFLPWLDSCKVRSSRYRPMAKRFFWAFVVTCLVLGWLGSKPAEGIYTTLGQVFTFFYFAYFLIVLPVLGRMEKTLPLPNSIAEDVLNKGKVAKAVAGLVAVLFAGGLMVGGVQPAKANEGGENPPSLQWSFAGPFGTYDRAQLQRGFKIYKEVCSNCHSLKLLQYRNLAEPGGPGFTVEQAKEIAAAAQIKDGPNDQGEMFERPGRLADTFHSPFPNEQAARAANGGAAPPDMSLLAKARTYPRGFPQFIFDFFTQFQEQGPNYIAALLQGYEDTPPEGFSLPDGSFYNKWYPGHSIKMPPPIQAGMVSYDDGTPETLEQYAKDISTFLVWASEPHMEARKRLGLQVMIFLVILSSLLYFVKRKVWSNVH”, the protein production result is reported as “failed”.

Take “MSGRGKVKSEPMKVVFINTQYVETDARSFKTVVQELTGKNAIVAAGPFDSPSAFDGRCYDGGSKIGEDTRQLHGGGGGGGRMGTTTEFDRLFKEMPHMEELYKLWSEY”: the protein production result is “failed”.

With “MSGRLRNALHKIRDRGLTPRDLFSYGCIAGHRLLSGAWGTLMLRAKAGCLGITVGKGCECFGTVILSRWPGSRIELGDGVSIISSSRRCTSATIHAPTRLRTFAPTARIILEDGVSLNGTAITARSRTIRIGKGTMVAPNCVITDSDFHAMWPPETRLDTPAFERDADVTIGQHVWLGMRCIVLKGVTIGDGAIVAAGSVVTRDVPPATLVAGVPARVVRHLP”, the protein production result is “failed”.

In the case of “MSGSQPGRDKAIPAPRPTADIWENPDQLPADRGDLIKAKLTPAVITIFLRNNLKRIALLASALFVLGMIVLWLLPVRYAATALVMVDPREQRVTTDQEVLPGIGQDAAALQSLIEIAKSDGFLRPLVEKLKVAEDHEIAGSETDPARVLDRFRKHLEIARRGLTYVIEMTFVAKDPQRAAYYANAVAEAFVASQTQVRAVAADEAAGWLSSRLKTLNEKLRASEDAVAAFKTQYRIVDAGRESTTRQLRVTELTQQVSAARLRTEEAKNRYEQAQRDLKSDVDGSTGSKSDLVSVLRTQRTQLNDQIAQKRAVLGDRHPELVIAYNQLAELNRQIEAERKRNIVSAKSDYDAMRDQLKALEQQLKSLETEMLGDDQAAVKLKELQREANANRAIYEQFLERYNTTNQQRLLQATQTKVASFATPPTRPTRPPLLVLIAAIAVASILVSIAVVAMLASLSNQPEQADNSGPPEGATAPVPVEAAATSAAEPIEEKKPAADYSNLPIVLRIPDLSGARTLGGKLAMLGGERRLDHYVVGLLDAIGVKPSQRGMVVLVTSVDPGAGKSSVARALNAIAVDRGMLSVVIEVAGQARSVPAAPSNRAEPDGGALVRVLKTTIPSVVRLIASEPDVSAQNDVRSEFDLILIDAPALATQTEVAEIAAHTDLNLLVIDSAVTEAGAALEAQALLSRRGHAPAGVVVNKAGAQPAPAAVPAARLAS”, the protein production result is recorded as “failed”.

Consider “MSGTSAALKPPADATTPVRHPDAPAPGELLGAHYGHCFGCGEEQSHGLHLAARAGQGVSITAEFTVQPAHQGAPGLAHGGVLATALDETLGSLNWLLRTIAVTGRLETDFVRPVPVGTVLYLEAEVTAVAGRKIYSTATGRIGGPEGPVAVRADALFVEVKVDHFTDNGRQEEIRAAMNDPDQLRRARAFEVNP”, for which the protein production entry is listed as “failed”.

Take “MSGYFEILAILTCAVFVVWLFRRLNLPAILAYLVAGMLVGQHGLNLVQDQVDYDHFAELGIVFLLFTLGLEFSLPRLMAMRHLVVSVGSLQVGISLLVFIIAGLFFGLSFSEAFVVGSILALSSTAIVIRQLSETGAMKRKSGQLSVAILLFQDVAVVPLLIIIPMLAMDSQSSMVWALMLAMVKGVVVVALLLLIGKWLLPKVFNIIAQVRTDELFVLTTLLVTLLAAAFTQWFGLSMALGAFLAGMMLSESEYKHQLEADIRPYRDILLGLFFITVGMKLDVSLLISSPFSLLGLMLCFMLVKIMVIKILAVKAGESSKDAWASGLMLAQMGEFGFVLIALANQSQILPLDVASMLLGAGVISMAITPFMINNARSWALFLSQEKSPESLDLSQLPENKVLENHVVICGFGRVGQTVSRFLKQDEIDFVAIDVDPLRTQKAREAGEKVLFGSSRQTEVLNAAHLSEAKLVVIAFGDDKQSLEVIQKVRSMNEKVPILVRTRNDDQLDALQAAGANEVVPESLEGSLMLVSQVLSLTGVPFSRIMRRVQRERKNHYNHLHGFFQGEHTDMSPQAIDRIEFAHAILINDNSFSCGKSIESLNLGKMRVNVVALRRGDIECESPGKDTVLQAQDTLIIRGKPRGVEKADHYVQEGK”: the protein production entry is “failed”.

Take “MSHLLEKAAARGDLAALERLLDAGADLEWQHKGTGRTALLAATIAGHQPAVALLLARGANVQQPCKALGYSPLAWAASHGDTALAELLIAHGAALEQASPELQRTALMNAAQAGHEAMVALLLKAGANPSPVDFQQRNAWSLAEENGHAQVMQQLEQAGTGAPPAPAPAPSLPWPPLVPGTDSSADPVTQVRAYTLALYAWEQRGNALGHEALDAAFWAEPQQLLERFCTLRPRAYPRASYGYPTTHAEADELLGCQLLKPAQAEVLVRDPASRALCYEHRFVVKRVAGQWRIDSVKRRLAGTQKWANAIL”: the protein production entry is “failed”.

For “MSHPDYRMNLRSLGTHRGVSAVAGPHDIGASPGDKKSKNRSTRGKKKSIFETYMSKEDVSEGLKRGTLIQGVLRINPKKFHEAFIPSPDGDRDIFIDGVVARNRALNGDLVVVKLLPEEHWKVVKPESNDKETEAAYESDIPEELCGHHLPQQSLKSYNDSPDVIVEAQFDGSDSEDGHGITQNVLVDGVKKLSVCVSEKGREDGDAPVTKDETTCISQDTRALSEKSLQRSAKVVYILEKKHSRAATGFLKLLADKNSELFRKYALFSPSDHRVPRIYVPLKDCPQDFVARPKDYANTLFICRIVDWKEDCNFALGQLAKSLGQAGEIEPETEGILTEYGVDFSDFSSEVLECLPQGLPWTIPPEEFSKRRDLRKDCIFTIDPSTARDLDDALSCKPLADGNFKVGVHIADVSYFVPEGSDLDKVAAERATSVYLVQKVVPMLPRLLCEELCSLNPMSDKLTFSVIWTLTPEGKILDEWFGRTIIRSCTKLSYEHAQSMIESPTEKIPAKELPPISPEHSSEEVHQAVLNLHGIAKQLRQQRFVDGALRLDQLKLAFTLDHETGLPQGCHIYEYRESNKPCCAGTPRPKQGCSVTWWNSATRWGCPWTSAPQEPSIKA”, the protein production entry is on record as “failed”.

Consider “MSHPSYPPAPQNDAGAGIPQVPAAPYAYGRQFQGGAQPGYQPGPDSGPYGSPVGAPAKSFMTTWILALLLGSFGVDRFYLGKIGTGIAKLLTAGGFGIWSIVDLIITLTGNARDKQGRPLAGYPENKKKAWIITIVVWFAGLIVGIVSTVLSLTFVAAAVQGAGTDAPVLPSASQEAPAPSSGTASDDGSLTVTMSEGNTVKVSLLNSGYTTEIPGMSYMKPTRGGFLLLEVSWEATAGSSYASPSNFEAFDADGAKGEEIYVEEGLGGLPSGDVAAGEMQRGVIAFDIKNGPTTVVISDDFGDKAATFTLTPAN”, for which the protein production entry is given as “failed”.

For “MSHSHSHGHSHEPTNYNRAFIISVALNTGFVVIEVVYGLAANSLALLADAGHNLSDVLGLLLAWGASFLGRRQPTPRRTYGLRRSSILAALLNAVLVLVASGAVAWEAIQRFAQPSPVSGSTIIGVAAVGIAINMGSALMFLSGRERDLNIRGAFIHLVADAAVSLGAVLAGIAIVATGWLWFDPVVSLMIVVVIIVSTWQLFQESLNLVTDAVPAGIEPLAVRTFLAELPGVSSIHDLHIWAMSTTETALTAHLIMPAGNLSDAFLVQVNQQLHDHFGIEHTTIHIETGDPSYPCPLAQENVV”, the protein production entry was “failed”.
